For series [1], the target named is T1, SpoVGSa (Staphylococcus aureus) (UniProt Q7A7B5).
T1 sequence: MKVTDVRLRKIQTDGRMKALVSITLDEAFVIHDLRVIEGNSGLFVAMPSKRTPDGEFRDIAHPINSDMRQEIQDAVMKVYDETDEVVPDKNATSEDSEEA
Description: EMSA. The following applies: 50 mM Tris-HCl pH 7.5, 1 mM DTT, 150 nM EDTA, 50 ng/ml poly dI-dC, phosphatase and protease inhibitors; about 20 C; protein stocks in 50 mM Tris-HCl, 25 mM …. For orientation: Mobility shift assays separate free from complexed probe on a gel.

The target of series [2] is T1, SpoVGSa (Staphylococcus aureus). Description: competition. The following applies: 50 mM Tris-HCl pH 7.5, 1 mM DTT, 150 nM EDTA, 50 ng/ml poly dI-dC, phosphatase and protease inhibitors; about 20 C; protein stocks in 50 mM Tris-HCl, 25 mM ….
Series [3] concerns the target T2, SpoVGBb (Borrelia burgdorferi B31) (UniProt O51726).
T2 sequence: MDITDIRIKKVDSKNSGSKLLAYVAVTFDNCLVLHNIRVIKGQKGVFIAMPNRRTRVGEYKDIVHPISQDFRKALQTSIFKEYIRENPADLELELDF
The series can be described thus: EMSA. The following applies: 50 mM Tris-HCl pH 7.5, 1 mM DTT, 150 nM EDTA, 50 ng/ml poly dI-dC, phosphatase and protease inhibitors; about 20 C; protein stocks in 50 mM Tris-HCl, 25 mM ….

In series [4] the target is T3, SpoVGSa (Staphylococcus aureus, UniProt Q7A7B5 1-100).
T3 sequence: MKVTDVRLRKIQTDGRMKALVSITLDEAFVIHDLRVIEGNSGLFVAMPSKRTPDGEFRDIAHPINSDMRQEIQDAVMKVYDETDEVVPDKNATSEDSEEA
The series can be described thus: competition; 50-fold excess vs cap41; 50 mM Tris-HCl pH 7.5, 1 mM DTT, 150 nM EDTA, 50 ng/ml poly dI-dC, phosphatase and protease inhibitors; about 20 C; protein stocks in 50 mM Tris-HCl, 25 mM KCl, 10% glycerol, 0.01% Tween-20. As to conditions: protein: recombinant; tags: 6xHis (pET101).

The target of series [5] is T3, SpoVGSa. The series can be described thus: competition; 10- to 50-fold excess vs cap41; 50 mM Tris-HCl pH 7.5, 1 mM DTT, 150 nM EDTA, 50 ng/ml poly dI-dC, phosphatase and protease inhibitors; about 20 C; protein stocks in 50 mM Tris-HCl, 25 mM KCl, 10% glycerol, 0.01% Tween-20. As to conditions: protein: recombinant; tags: 6xHis (pET101); blunt.
In series [6] the target is T3, SpoVGSa. The series can be described thus: EMSA; 50 mM Tris-HCl pH 7.5, 1 mM DTT, 150 nM EDTA, 50 ng/ml poly dI-dC, phosphatase and protease inhibitors; about 20 C; protein stocks in 50 mM Tris-HCl, 25 mM KCl, 10% glycerol, 0.01% Tween-20. As to conditions: protein: recombinant; tags: 6xHis (pET101); label: 5' biotin (strand 1); strands not exact complements (S12 has 3 extra nt).

The target in the next series is SpoVGSa K50A-R51A (Staphylococcus aureus, UniProt Q7A7B5 1-100, K50A;R51A). The series can be described thus: EMSA; 1.5 uM protein; 50 mM Tris-HCl pH 7.5, 1 mM DTT, 150 nM EDTA, 50 ng/ml poly dI-dC, phosphatase and protease inhibitors; about 20 C; protein stocks in 50 mM Tris-HCl, 25 mM KCl, 10% glycerol, 0.01% Tween-20. The following applies: protein: recombinant; tags: 6xHis (pET101); label: 5' biotin (strand 1); strands not exact complements (S12 has 3 extra nt).

The next series addresses SpoVGSa K50A (Staphylococcus aureus, UniProt Q7A7B5 1-100, K50A). The series is described as above. As to conditions: protein: recombinant; tags: 6xHis (pET101); label: 5' biotin (strand 1); strands not exact complements (S12 has 3 extra nt).
The target in a further series is SpoVGSa R51A (Staphylococcus aureus, UniProt Q7A7B5 1-100, R51A). The series is described as above. The following applies: protein: recombinant; tags: 6xHis (pET101); label: 5' biotin (strand 1); strands not exact complements (S12 has 3 extra nt).
The target in another series is T4, SpoVGBb (Borrelia burgdorferi B31, UniProt O51726 1-97).
T4 sequence: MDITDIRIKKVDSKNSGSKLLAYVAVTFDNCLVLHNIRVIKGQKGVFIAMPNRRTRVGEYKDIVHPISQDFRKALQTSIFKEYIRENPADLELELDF
The series can be described thus: EMSA; 200 nM protein; 50 mM Tris-HCl pH 7.5, 1 mM DTT, 150 nM EDTA, 50 ng/ml poly dI-dC, phosphatase and protease inhibitors; about 20 C; protein stocks in 50 mM Tris-HCl, 25 mM KCl, 10% glycerol, 0.01% Tween-20. The following applies: protein: recombinant; tags: 6xHis (pET101); label: 5' biotin (strand 1); strands not exact complements (S12 has 3 extra nt).

The target in a further series is SpoVGBb-Sa (Borrelia burgdorferi B31, UniProt O51726 1-97, Q69S;F71M;K73Q;A74E). Described as above. The following applies: protein: recombinant; tags: 6xHis (pET101); label: 5' biotin (strand 1); strands not exact complements (S12 has 3 extra nt).
The target in series [7] is T3, SpoVGSa. Description: competition; 25- and 50-fold excess vs cap41; 50 mM Tris-HCl pH 7.5, 1 mM DTT, 150 nM EDTA, 50 ng/ml poly dI-dC, phosphatase and protease inhibitors; about 20 C; protein stocks in 50 mM Tris-HCl, 25 mM KCl, 10% glycerol, 0.01% Tween-20. As to conditions: protein: recombinant; tags: 6xHis (pET101); blunt.

Experimental findings from publication PMC3688583, “Eubacterial SpoVG Homologs Constitute a New Family of Site-Specific DNA-Binding Proteins” are described below.

Consider cap5 5' non-coding DNA, for which the equilibrium dissociation constant (Kd) in [1] worked out at 316 nM. This counts as sub-micromolar.

Regarding “CCTCCTGAATATTTTAAGTTTATCAAAACTTTTTAGGGACACTATTTTTTGAAAAAGTGCTCCTTACTCAAATAATATATAAATTATTAGTATATGTATATAGTTTTTTAAGTATTTTTAGTTTTTTTTAAATAAATATATTGAATATACCCATATATTTTTAATTAACCATTCATTTTTGTAATATAAATGTGTATACTAAAATTAAATTAAATACATAAAGG (double strand) [esxA 5' non-coding DNA]”, the binding entry in series [2] is recorded as “binds”.

For the molecule “GTTAATAGTTTGCCTAAGGAAAAAAGCGATATAAGTAGTACGACGGGGAAACCAGATAGTACAGGTTCTGTTGGT (double strand) [vlsE F27B-R10]”, in series [3], the binding entry is on record as “binds”.

For the molecule “GGTGAATACTTATCATTTAAGTCCTTTGACACCTCATCTAAAATTCTAGGACTTTTAACAATTTCTTTATACGTATTTACAAGTTGAATATTACTTTGAACCTCTTGCGCCATAAACTGAGGATTGTCACCCTTAGTTTGATTCACTAAAATTTGAGTATTAGCTTGATATTTAGGTGATAAGACGAAAAATGTAACAATAGCGC (double strand) [cap5A ORF DNA]”, the binding result in series [2] was “binds more weakly”.

B1: competitor C (dsDNA)
DNA 1: AAAATAATGCGGTTTAAAAGTAATTAAT
DNA 2: ATTAATTACTTTTAAACCGCATTATTTT
Turning to B1, in the series with SpoVGSa [4], the binding result was “no binding”.

B2: competitor A (dsDNA)
DNA 1: GAGTATAATTATTTTTAATTTACATATA
DNA 2: TATATGTAAATTAAAAATAATTATACTC
Turning to B2, the binding result in the series with SpoVGSa [5] is listed as “binds”.

B3: competitor B (dsDNA)
DNA 1: TACATATAAATAAAAAGGCGAAAATAAT
DNA 2: ATTATTTTCGCCTTTTTATTTATATGTA
Take B3: the binding result with SpoVGSa [4] was “no binding”.

B4: cap41 (dsDNA)
DNA 1: GAGTATAATTATTTTTAATTTACATATAAATAAAAAGGCGAAAATAATGCGGTTTAAAAGTAATTAAT
DNA 2: ATTAATTACTTTTAAACCGCATTATTTTCGCCTTTTTATTTATATGTAAATTAAAAATAATTAATATACTC
Consider B4, for which the binding result is listed as “binds” with SpoVGSa [6]; “no binding” with SpoVGSa K50A-R51A; “no binding” in the series with SpoVGSa K50A; “no binding” with SpoVGSa R51A; “no binding” in the series with SpoVGBb; “binds” with SpoVGBb-Sa.

B5: mutant competitor A (dsDNA)
DNA 1: GAGTAGCCGCCTTTTCGCCGGACATATA
DNA 2: TATATGTCCGGCGAAAAGGCGGCTACTC
Turning to B5, in the series with SpoVGSa [7], the binding signal is > 5 fold lower affinity than competitor A.

Usually Kd stands for the free concentration of one partner at which half of the binding sites on the other are occupied at equilibrium, for simple one-to-one binding. Low values mean tighter binding, high ones weaker binding.
